# B1: fpf2 (10-150-373) (ssDNA)
# DNA: CCGTATACATACCTGATAGCGTATGCGAGGAAGTGGGCTTGGTGTGGTGGGCTTCTCTCAGTAGGTGCATAAGCGCATGCATGC
# Molecular target: PD-1 (PDCD1, recombinant full length) (Homo sapiens, UniProt Q15116 Q15116:25-288)
# Experiment: BLI; per-concentration fits 9.90, 4.17, 1.34 nM; phosphate pH 7.4, 137 mM NaCl, 2.7 mM KCl, 0.1% BSA, 0.01% Tween-20, 25 C
# Conditions: tags: ACROBiosystems, produced in HEK293; label: 5' biotin (BLI) or FAM (flow); predicted hairpin-bulge / possible G-quadruplex
# Procedure: Specific PD-1 5′ biotinylated DNA aptamer (Midland Oligos) were prepared in the concentration range of (10 nM and 100 nM). […] Octet Red analysis software (ForteBio) was used to analyze the sensorgram data.
# PD-1 (PDCD1, recombinant full length), sequence (Q15116 25-288, one chain of several): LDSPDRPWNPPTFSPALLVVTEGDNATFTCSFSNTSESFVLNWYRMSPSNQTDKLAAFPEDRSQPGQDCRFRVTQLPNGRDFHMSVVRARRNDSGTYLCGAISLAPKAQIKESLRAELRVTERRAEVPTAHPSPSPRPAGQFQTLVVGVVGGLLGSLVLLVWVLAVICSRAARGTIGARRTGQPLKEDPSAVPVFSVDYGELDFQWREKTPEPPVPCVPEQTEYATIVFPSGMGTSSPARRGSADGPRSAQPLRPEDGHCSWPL
binder,measurement,value
B1,binding result,binds

# Source: US20190233824A1, “PD-1 SPECIFIC APTAMERS” (THE METHODIST HOSPITAL SYSTEM, published 2019)
